Like-named read-outs stand apart in the source and are kept apart here.

The test system of this data set is thrombin.

In turn, Bock-15 showed a binding signal (fold higher Kd than TBV-08) (Kd of TBV-08 stated as 300-fold lower than Bock-15) of 300.
For the setting “Kd of TBV-08 stated as 200-fold lower than Tasset-29”, Tasset-29 had a binding signal (fold higher Kd than TBV-08) of 200.

For the origin of these results see patent US20260201391.
